Experimental data published in article PMC12416549 (2024).
Residue numbers refer to the chain shown, from its start. Numbers in names are those of the source.

B1: A19E (designed binder)
chain: MTLQELLREEALRRAEAEEFRYALELLAEKFPEQKEYLLDLAEEIESQIRSLSGVDVEDVRKFLDKEWAWVKELLAEHPAELAEVEAARAARLAELRAEVEAKVAA
B2: K66L (designed binder)
chain: B1 chain with E19A, K66L
B3: G54H (designed binder)
chain: B1 chain with E19A, G54H
B4: K30V (designed binder)
chain: B1 chain with E19A, K30V
B5: Q34W (designed binder)
chain: B1 chain with E19A, Q34W
B6: F20S (designed binder)
chain: B1 chain with E19A, F20S
B7: A80S (designed binder)
chain: B1 chain with E19A, A80S
B8: R21Y (designed binder)
chain: B1 chain with E19A, R21Y
B9: L75E (designed binder)
chain: B1 chain with E19A, L75E
B10: K30R (designed binder)
chain: B1 chain with E19A, K30R
B11: L74R (designed binder)
chain: B1 chain with E19A, L74R
B12: E9V (designed binder)
chain: B1 chain with E9V, E19A
B13: Y37K (designed binder)
chain: B1 chain with E19A, Y37K
B14: S51H (designed binder)
chain: B1 chain with E19A, S51H
B15: Y22A (designed binder)
chain: B1 chain with E19A, Y22A
B16: A87H (designed binder)
chain: B1 chain with E19A, A87H
B17: L93P (designed binder)
chain: B1 chain with E19A, L93P
B18: E9G (designed binder)
chain: B1 chain with E9G, E19A
B19: A11L (designed binder)
chain: B1 chain with A11L, E19A
B20: L38H (designed binder)
chain: B1 chain with E19A, L38H
B21: L52N (designed binder)
chain: B1 chain with E19A, L52N
B22: A91V (designed binder)
chain: B1 chain with E19A, A91V
B23: I45W (designed binder)
chain: B1 chain with E19A, I45W
B24: E101F (designed binder)
chain: B1 chain with E19A, E101F
B25: A17T (designed binder)
chain: B1 chain with A17T, E19A
B26: E86W (designed binder)
chain: B1 chain with E19A, E86W
B27: E36L (designed binder)
chain: B1 chain with E19A, E36L
B28: L3A (designed binder)
chain: B1 chain with L3A, E19A
B29: R8T (designed binder)
chain: B1 chain with R8T, E19A
B30: I49H (designed binder)
chain: B1 chain with E19A, I49H
B31: A15F (designed binder)
chain: B1 chain with A15F, E19A
B32: E43Q (designed binder)
chain: B1 chain with E19A, E43Q
B33: R21P (designed binder)
chain: B1 chain with E19A, R21P
B34: L64V (designed binder)
chain: B1 chain with E19A, L64V
B35: F63K (designed binder)
chain: B1 chain with E19A, F63K
B36: V104T (designed binder)
chain: B1 chain with E19A, V104T
B37: E33R (designed binder)
chain: B1 chain with E19A, E33R
B38: E25G (designed binder)
chain: B1 chain with E19A, E25G
B39: E86D (designed binder)
chain: B1 chain with E19A, E86D
B40: K66E (designed binder)
chain: B1 chain with E19A, K66E

Molecular target: T1, TNFR1 (Homo sapiens, UniProt P19438)
T1 chain: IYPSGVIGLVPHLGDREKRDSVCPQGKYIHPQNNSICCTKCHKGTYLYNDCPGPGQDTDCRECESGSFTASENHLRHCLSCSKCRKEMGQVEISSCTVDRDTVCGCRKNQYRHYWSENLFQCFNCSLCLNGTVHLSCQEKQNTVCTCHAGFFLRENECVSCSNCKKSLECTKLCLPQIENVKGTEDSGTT
Assay: yeast display SC50

apparent Kd (screen) [nM] | Binder
0.956 | B1
0.49 | B2
11.4 | B3
0.446 | B4
1.69 | B5
1.05 | B6
0.869 | B7
0.49 | B8
0.653 | B9
0.593 | B10
12.5 | B11
0.869 | B12
0.539 | B13
0.304 | B14
0.79 | B15
0.49 | B16
1.69 | B17
1.69 | B18
2.05 | B19
0.79 | B20

apparent Kd (screen) [nM] | Binder
2.73 | B21
0.539 | B22
0.718 | B23
0.593 | B24
0.446 | B25
2.73 | B26
0.539 | B27
2.73 | B28
0.79 | B29
0.304 | B30
0.653 | B31
0.956 | B32
0.49 | B33
13.8 | B34
5.31 | B35
0.956 | B36
0.49 | B37
0.49 | B38
0.446 | B39
0.869 | B40
